B1: GOMP001_bsAb_055 (bispecific antibody, human IgG1, kappa, L234A L235A)
heavy 1: QVQLVQSGAEVKKPGASVKVSCKASGYTFTSHWMHWVRKAPGQGLEWIGEFNPSNGRTNYNEEFKSKATMTVDTSTNTAYMELSSLRSEDTAVYYCASRDYDYDGRYFDYWGQGTLVTVSSASTKGPSVFPLAPSSKSTSGGTAALGCLVADYFPEPVTVSWNSGALTSGVHTFPAVLQSSGLYSLSSVVTVPSSSLGTQTYICNVNHKPSNTKVDEKVEPKSCDKTHTCPPCPAPEAAGGPSVFLFPPKPKDTLMISRTPEVTCVVVDVSHEDPEVKFNWYVDGVEVHNAKTKPREEQYNSTYRVVSVLTVLHQDWLNGKEYKCKVSNKALPAPIEKTISKAKGQPREPQVYTLPPSREEMTDNQVSLTCLVKGFYPSDIAVEWESNGQPENNYKTTPPVLMSDGSFFLASKLTVDKSRWQQGNVFSCSVMHEALHNHYTQKSLSLSPG
light 1: RIQMTQSPSSLSASVGDRVTITCSASSSVTYMYWYQDKPGKAPKLLIYDTSNLASGVPSRFSGSGSGTDYTFTISSLQPEDIATYYCQQWSSHIFTFGQGTKVEIKRTVAAPSVFIFPPSDKQLKSGTARVVCLLNNFYPREAKVQWKVDNALQSGNSQESVTEQDSKDSTYSLSSTLTLSKADYEKHKVYACEVTHQGLSSPVTKSFNRGEC
heavy 2: EVNLVESGGGLVQPGRSLRLSCAASGFTFDDYTMHWVRYVPGKGLEWVSNISWNSGSLGYADRVKGRFTISRDNAKDSLYLQMNSLRVEDTALYYCAKDSSGYGHYNSYYMDVWGRGTTVTVSSASTKGPSVFPLAPSSKSTSGGTAALGCLVKDYFPEPVTVSWNSGALTSGVHTFPAVLQSSGLYSLSSVVTVPSSSLGTQTYICNVNHKPSNTKVDKKVEPKSCDKTHTCPPCPAPEAAGGPSVFLFPPKPKDTLMISRTPEVTCVVVDVSHEDPEVKFNWYVDGVEVHNAKTKPREEQYNSTYRVVSVLTVLHQDWLNGKEYKCKVSNKALPAPIEKTISKAKGQPRRPRVYTLPPSREEMTKNQVSLVCLVKGFYPSDIAVEWESNGQPENNYKTTPPVLDSDGSFFLYSVLTVDKSRWQQGNVFSCSVMHEALHNHYTQKSLSLSPG
light 2: DIQMTQSPSSLSASVGDRVTITCRASQSIRNYLNWYQRKPGDAPKVLIYSASSLQSGVPSRFSGSGSGTDFTLTISSLQPEDFASFYCQQTYSTPITFGQGTRLEIKRTVAAPSVFIFPPSDEQLKSGTASVVCLLNNFYPREAKVQWKVDNALQSGNSQESVTEQDSKDSTYSLSSTLTLSKADYEKHKVYACEVTHQGLSSPVTKSFNRGEC
B2: GOMP001_bsAb_056 (bispecific antibody)
heavy 1: EVNLVESGGGLVQPGRSLRLSCAASGFTFDDYTMHWVRKVPGKGLEWVSNISWNSGSLGYADEVKGRFTISRDNAKDSLYLQMNSLRVEDTALYYCAKDSSGYGHYNSYYMDVWGKGTTVTVSSASTKGPSVFPLAPSSKSTSGGTAALGCLVADYFPEPVTVSWNSGALTSGVHTFPAVLQSSGLYSLSSVVTVPSSSLGTQTYICNVNHKPSNTKVDEKVEPKSCDKTHTCPPCPAPEAAGGPSVFLFPPKPKDTLMISRTPEVTCVVVDVSHEDPEVKFNWYVDGVEVHNAKTKPREEQYNSTYRVVSVLTVLHQDWLNGKEYKCKVSNKALPAPIEKTISKAKGQPREPQVYTLPPSREEMTDNQVSLTCLVKGFYPSDIAVEWESNGQPENNYKTTPPVLMSDGSFFLASKLTVDKSRWQQGNVFSCSVMHEALHNHYTQKSLSLSPG
light 1: RIQMTQSPSSLSASVGDRVTITCRASQSIRNYLNWYQDKPGKAPKVLIYSASSLQSGVPSRFSGSGSGTDFTLTISSLQPEDFASFYCQQTYSTPITFGQGTRLEIKRTVAAPSVFIFPPSDKQLKSGTARVVCLLNNFYPREAKVQWKVDNALQSGNSQESVTEQDSKDSTYSLSSTLTLSKADYEKHKVYACEVTHQGLSSPVTKSFNRGEC
heavy 2: QVQLVQSGAEVKKPGASVKVSCKASGYTFTSHWMHWVRYAPGQGLEWIGEFNPSNGRTNYNEKFKSKATMTVDTSTNTAYMELSSLRSEDTAVYYCASRDYDYDGRYFDYWGRGTLVTVSSASTKGPSVFPLAPSSKSTSGGTAALGCLVKDYFPEPVTVSWNSGALTSGVHTFPAVLQSSGLYSLSSVVTVPSSSLGTQTYICNVNHKPSNTKVDKKVEPKSCDKTHTCPPCPAPEAAGGPSVFLFPPKPKDTLMISRTPEVTCVVVDVSHEDPEVKFNWYVDGVEVHNAKTKPREEQYNSTYRVVSVLTVLHQDWLNGKEYKCKVSNKALPAPIEKTISKAKGQPRRPRVYTLPPSREEMTKNQVSLVCLVKGFYPSDIAVEWESNGQPENNYKTTPPVLDSDGSFFLYSVLTVDKSRWQQGNVFSCSVMHEALHNHYTQKSLSLSPG
light 2: DIQMTQSPSSLSASVGDRVTITCSASSSVTYMYWYQRKPGDAPKLLIYDTSNLASGVPSRFSGSGSGTDYTFTISSLQPEDIATYYCQQWSSHIFTFGQGTKVEIKRTVAAPSVFIFPPSDEQLKSGTASVVCLLNNFYPREAKVQWKVDNALQSGNSQESVTEQDSKDSTYSLSSTLTLSKADYEKHKVYACEVTHQGLSSPVTKSFNRGEC
B3: mAb 314 (antibody, V domains shown)
VH: EVQLLESGGGLVQPGGSLRLSCAASGFTFSSYAMSWVRQAPGKGLEWVSVISGSGGNKNYADSVKGRFTISRDNSKNTLYLQMNSLRAEDTAVYYCAKKFSYYYYYMDVWGKGTTVTVSS
VL: SYELTQPLSVSVALGQTARITCGGNNIGSKDVHWYQQKPGQAPVLVIYRDSNRPSGIPERFSGSNSGNTATLTISRAQAGDEADYYCQVWDSRTAVFGGGTQLTAL
notes: VH and VL only
B4: mAb 291 (antibody, V domains shown)
VH: EVQLLESGGGLVQPGGSRRLSCAASGFTFSSYALSWVRQAPGKGLEWVSVINTRGDSTSYADSVKGRFTISRDNSKNTLYLQMNSLRAEDTAVYYCAKKYSYYYYYMDVWGKGTTVTVSS
VL: SYELTQPLSVSVALGQTARITCGGNNIGSKDVHWYQQKPGQAPVLVIYRDSNRPSGIPERFSGSNSGNTATLTISRAQAGDEADYYCQVWDSRTAVFGGGTQLTAL
notes: VH and VL only
B5: mAb 295 (antibody, V domains shown)
VH: EVQLLESGGGLVQPGGSLRLSCAASGITFSSYAMSWVRQAPGKGLEWVSTISGNGGTLYYTDSVKGRFTISRDNSKNTLYLQMNSLRAEDTAVYYCAKKYSYYYYYMDVWGKGTTVTVSS
VL: SYELTQPLSVSVALGQTARITCGGNNIGSKNVHWYQQKPGQAPVLVIYRDSNRPSGIPERFSGSNSGNTATLTISRAQAGDEADYYCQVWDSSTAVFGGGTQLTAL
notes: VH and VL only
B6: mAb 298 (antibody, V domains shown)
VH: EGQLLESGGGLVQPGGSLRLSCAASGFTFSRYAMSWIRQAPGKGLEWVSVINGSGGDKNYADSVKGRFTISRDNSKNSLYLLMNGLRVEDTAIYFCAKKFSYYYYYMDVWGKGTTVTVSS
VL: SYELTQPLSVSVALGQTARITCGGNNIGGKDVHWYQQKPGQAPVLVIYRDSNRPSGIPERFSGSNSGNTATLTISRAQAGDEADYYCQVWDSRTAVFGGGTQLTAL
notes: VH and VL only
B7: mAb 299 (antibody, V domains shown)
VH: EVQLLESGGGLVQPGGSRRLSCAASGFTFRSYAMSWVRQAPGKGLEWVSVISIRGDSTSYADSVKGRFTISRDNSKNTLYLQMNSLRAEDTAVYYCAKKYSYYYYYMDVWGKGTTVTVSS
VL: SYELTQPLSVSVALGQTARITCGGNNIGSKDVHWYQQKPGQAPVLVIYRDSNRPSGIPERFSGSNSGNTATLTISRAQAGDEADYYCQVWDSRTAVFGGGTQLTAL
notes: VH and VL only
B8: mAb 305 (antibody, V domains shown)
VH: EVQLLESGGGLVQPGGSLRLSCAASGFSFSSFALSWVRQAPGKGLEWVSVISGNGGNKNYADSVKGRFTISRDNSKNTLYLQMNSLRAEDTAVYYCAKKYSYYYYYMDVWGKGTTVTVSS
VL: SYELTQPLSVSVALGQTARITCGGNNIGGKDVHWYQQKPGQAPVLVIYRDSNRPSGIPERFSGSNSGNTATLTISRAQAGDEADYYCQVWDSRAAVFGGGTQLTAL
notes: VH and VL only
B9: mAb 309 (antibody, V domains shown)
VH: ELQLLESGGGLVQPGGSLRLSCAASGFTFSSYAMSWVRQAPGKGLEWVSVISGNGGNKNHADSVKGRFTISRDNSKNTLYLQMNSLRAEDTAVYYCAKKYSYYYYYMDVWGKGTTVTVSS
VL: SYELTQPLSVSVALGQTARITCGGNNIGSKDVHWYQQKPGQAPVLVIYRDSNRPSGIPERFSGSNSGNTATLTISRAQAGDEADYYCQVWDSRTAVFGGGTQLTAL
notes: VH and VL only
B10: mAb 313 (antibody, V domains shown)
VH: EVQLLESGGGLVQPGGSLRLSCAASGFTFSSYAMSWVRQAPGKGLEWVSAITGSGRTTYFVDSVKGRFTISRDNSKNTLYLQMNSLRAEDTAVYYCAKKFSYYYYYMDVWGKGTTVTVSS
VL: SYELTQPLSVSVALGQTARITCGGNNIGSKDVHWYQQKPGQAPVLVIYRDSNRPSGIPERFSGSNSGNTATLTISRAQAGDEADYYCQVWDRKIAVFGGGTQLTAL
notes: VH and VL only
B11: mAb 315 (antibody, V domains shown)
VH: EVQLLESGGGLVQPGGSRRLSCAASGFTFSSYAMSWVRQAPGKGLEWVSVINTRGDSTSYADSVKGRFTISRDNSKNTLYLQMNSLRAEDTAVYYCAKKYSYYYYYMDVWGKGTTVTVSS
VL: SYELTQPLSVSVALGQTARITCGGNNIGSKDVHWYQQKPGQAPVLVIYRDSNRPSGIPERFSGSNSGNTATLTISRAQAGDEADYYCQVWDSRTAVFGGGTQLTAL
notes: VH and VL only
B12: mAb 317 (antibody, V domains shown)
VH: EVQLLESGGGLVQPGGSLRLSCAASGFTFSSFAMSWVRQAPGKGLEWVSVISGNGDKKNYADSVKGRFTISRDNSKNTLYLQMNSLRAEDTAVYYCAKKYSYYYYYMDVWGKGTTVTVSS
VL: SYELTQPLSVSVALGQTARITCGGNNIGSKDVHWYQQKPGQAPVLVIYRDSNRPSGIPERFSGSNSGNTATLTISRAQAGDEADYYCQVWDSRTAVFGGGTQLTAL
notes: VH and VL only
B13: mAb 308 (antibody, V domains shown)
VH: EVQLLESGGGSVQPGGSLRLSCAASGFTFSSYAMNWVRQAPGKGLEWISIISGGRRTGITYYAASVKGRFTISRDNSKNTLYLQMNSLRAEDTAVYYCAKMYNYYYYYIDVWGKGTTVTVSS
VL: SYELTQPLSVSVALGQTARITCGGNNIGSKDVHWYQQKPGQAPVLVIYRDSNRPSGIPERFSGSNSGNTATLTISRAQAGDEADYYCQVWDSNTAVFGGGTQLTAL
notes: VH and VL only

What follows are binders tested against EGFR on HeLa cells (UniProt P00533 25-1210, limits assumed) (assay: cell-based or functional assay).

Binder	Max killing % [%]	X… HeLa EC50 [nM]
B1	78	0.182
B2	96.3	0.0135

The binders below were run against T1, cynomolgus monkey CD3 (cynomolgus monkey, UniProt Q95LI5 22-198; Q95LI8 22-171; Q95LI7 23-181) (assay: flow cytometry, cyno primary T cells).
T1 construct: whole, on cells; CD3 on purified cynomolgus monkey CD3 pan T cells; also called cyno CD3; CD3 on cyno primary T cells
T1 sequence (Q95LI5 22-198, chain 1 of 3): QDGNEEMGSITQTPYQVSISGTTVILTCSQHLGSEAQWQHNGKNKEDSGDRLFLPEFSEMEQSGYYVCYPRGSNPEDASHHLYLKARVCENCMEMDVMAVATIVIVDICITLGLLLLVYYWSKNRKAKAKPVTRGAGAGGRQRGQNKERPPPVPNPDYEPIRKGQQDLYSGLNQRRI
T1 sequence (Q95LI8 22-171, chain 2 of 3): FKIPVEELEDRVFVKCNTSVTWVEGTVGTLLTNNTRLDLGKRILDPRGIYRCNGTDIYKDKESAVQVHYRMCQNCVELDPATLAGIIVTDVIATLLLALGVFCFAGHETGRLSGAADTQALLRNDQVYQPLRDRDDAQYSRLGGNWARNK
T1 sequence (Q95LI7 23-181, chain 3 of 3): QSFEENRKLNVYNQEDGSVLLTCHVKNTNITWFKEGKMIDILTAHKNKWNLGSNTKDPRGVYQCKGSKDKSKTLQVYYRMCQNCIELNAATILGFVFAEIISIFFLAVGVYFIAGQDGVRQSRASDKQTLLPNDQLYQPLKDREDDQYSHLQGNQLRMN
Summary of the method: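 Flow cytometric binding was measured after cells were incubated with antibody (25 nM, PBS+2% FBS) at 4° C for 30 minutes. Signals were normalized to isotype to yield FOI, with ≥10 scored positive.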

Binder	binding result
B3	no binding (tested: FOI ≥10 = positive; 25 nM)
B4	no binding (tested: FOI ≥10 = positive; 25 nM)
B5	no binding (tested: FOI ≥10 = positive; 25 nM)
B6	no binding (tested: FOI ≥10 = positive; 25 nM)
B7	no binding (tested: FOI ≥10 = positive; 25 nM)
B8	no binding (tested: FOI ≥10 = positive; 25 nM)
B9	no binding (tested: FOI ≥10 = positive; 25 nM)
B10	no binding (tested: FOI ≥10 = positive; 25 nM)
B11	no binding (tested: FOI ≥10 = positive; 25 nM)
B12	no binding (tested: FOI ≥10 = positive; 25 nM)
B13	no binding (tested: FOI ≥10 = positive; 25 nM)
